Experimental data from PMC2424011.

Legend:
[1] = molecular target: mouse recombinant sFRP-3 (R&D) (mouse) (UniProt P97401); test: other fluorescence titration; competition: 250 nM native EGF added to 25 nM EGFAlexa488 prior to 100 nM sFRP-3, in PBS; spectrum of Alexa488, peak at 517 nm
[2] = molecular target: Alexa488-conjugated EGF; test: as above

Molecule | decrease of the EGFAlexa488 absorbance value at the emission peak when native EGF was added before sFRP-3 [1] [units] | decrease of the EGFAlexa488 absorbance value at the emission peak [2] [units]
recombinant mouse EGF (ligand) | 7 | –
mouse recombinant sFRP-3 (R&D) (natural protein) AACEPVRIPLCKSLPWNMTKMPNHLHHSTQANAILAMEQFEGLLGTHCSPDLLFFLCAMYAPICTIDFQHEPIKPCKSVCERARQGCEPILIKYRHSWPESLACDELPVYDRGVCISPEAIVTADGADFPMDSSTGHCRGASSERCKCKPVRATQKTYFRNNYNYVIRAKVKEVKMKCHDVTAVVEVKEILKASLVNIPRDTVNLYTTSGCLCPPLTVNEEYVIMGYEDEERSRLLLVEGSIAEKWKDRLGKKVKRWDMKLRHLGLGKTDASDSTQNQKSGRNSNPRPARS | – | 10
